Assay results reported in patent publication US20120301492A1.

B1: WT1 peptide P121-129 (…) (peptide)
peptide: SSGQARMFP
B2: WT1 peptide P124-132 (…) (peptide)
peptide: QARMFPNAP
B3: WT1 peptide P125-133 (…) (peptide)
peptide: ARMFPNAPY
B4: WT1 peptide P127-135 (…) (peptide)
peptide: MFPNAPYLP
B5: WT1 peptide P120-128 (…) (peptide)
peptide: ASSGQARMF
B6: WT1 peptide P117-125 (…) (peptide)
peptide: PSQASSGQA
B7: WT1 peptide P128-136 (…) (peptide)
peptide: FPNAPYLPS
B8: WT1 peptide P129-137 (…) (peptide)
peptide: PNAPYLPSC
B9: WT1 peptide P131-139 (…) (peptide)
peptide: APYLPSCLE
B10: WT1 peptide P118-126 (…) (peptide)
peptide: SQASSGQAR
B11: WT1 peptide P130-138 (…) (peptide)
peptide: NAPYLPSCL
B12: WT1 peptide P119-127 (…) (peptide)
peptide: QASSGQARM
B13: WT1 peptide human p136-144 (…) (peptide)
peptide: SCLESQPAI
B14: WT1 peptide p239-247 (…) (peptide)
peptide: NQMNLGATL
B15: WT1 peptide p225-233 (…) (peptide)
peptide: NLYQMTSQL
B16: WT1 peptide p235-243 (…) (peptide)
peptide: CMTWNQMNL
B17: WT1 peptide p329-337 (…) (peptide)
peptide: GCNKRYFKL
B18: WT1 peptide human p10-18 (…) (peptide)
peptide: ALLPAVPSL
B19: WT1 peptide p221-229 (…) (peptide)
peptide: YSSDNLYQM
B20: WT1 peptide p228-236 (…) (peptide)
peptide: QMTSQLECM

Molecular target: mouse B6 class I antigens (Mouse MHC Class I; D^b or K^b molecules on the surface of RMA-S cells)
Assay: binding of 9-mer peptides within p117-139 to mouse B6 (H-2^b) class I antigens; RMA-S assay as for Table XLVII

Row | Binder | Binding Affinity to Mouse MHC Class I [%]
1 | B1 | 1
2 | B2 | 1
3 | B3 | 1
4 | B4 | 2
5 | B5 | 1
6 | B6 | 2
7 | B7 | 1
8 | B8 | 1
9 | B9 | 1
10 | B10 | 2
11 | B11 | 79
12 | B12 | 2

Molecular target: mouse B6 class I antigens (Mouse MHC Class I; D^b or K^b molecules on the surface of RMA-S cells)
Assay: RMA-S class I stabilisation, flow cytometry with FITC anti-D^b or anti-K^b; % increase of MFI over medium alone, peptide 25 ug/ml

Row | Binder | Binding Affinity to Mouse MHC Class I [%]
13 | B13 | 52
14 | B14 | 1
15 | B15 | 5.8
16 | B16 | 33.6
17 | B17 | 1.2
18 | B18 | 2.2
19 | B19 | 0.8
20 | B20 | 1.2
